Measured values taken from FireProtDB (doi:10.1021/bi010565n).

Conditions: Aspergillus oryzae (strain ATCC 42149 / RIB 40), pH 7, Thermal, MOPS 30 mM, reversible: yes(0.94), whole UniProt chain shown

B1: Guanyl-specific ribonuclease T1 wild type, P00651 (protein)
chain: MMYSKLLTLTTLLLPTALALPSLVERACDYTCGSNCYSSSDVSTAQAAGYQLHEDGETVGSNSYPHKYNNYEGFDFSVSSPYYEWPILSSGDVYSGGSPGADRVVFNENNQLAGVITHTGASGNNFVECT
Tm (CD): 51.2 °C
Tm (DSC): 51.5 °C
